Results reported in the supplement of paper PMC11865577.

Key:
Test in all cases: pull-down binding Z-score (relative to library population); higher = stronger binding
Settings in all cases: RNA library: Library-2
[1] = test system: TO-N3 (biotin conjugate)
In short: (§1)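 To score binding, a beads-only signal was subtracted, barcoded replicate probes were averaged with the highest and lowest dropped, and the value was converted to a Z-score using the library mean and standard deviation. The input was 1 μg of Cy5- or Cy3-end-labelled RNA library, heat-folded in phosphate/NaCl/KCl buffer and mixed for 60 min at 25 °C with streptavidin beads carrying 100 pmol of biotin-conjugated small molecule. Bound RNA was eluted in hot SDS and hybridised to a DNA barcode microarray at 55.5 °C for 20 h.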

[2] = test system: TO-3-N3-2 (biotin conjugate)
In short: as §1

[3] = test system: TO-N3-2 (biotin conjugate)
In short: as §1

[4] = test system: TO-3-N3 (biotin conjugate)
In short: as §1

Row | Sequence | pull-down binding Z-score [1] | pull-down binding Z-score [2] | pull-down binding Z-score [3] | pull-down binding Z-score [4]
1 | CAUGUUUAUCACCCGCGAAGAAGCUAUAAGACAUGUACGUGCAUGGAUUGGCUUCGAUGUCGAGGGGUGUCAUG [DMSMaPseq_invitro_SARS-CoV-2_Motif_326] | -0.771 | -0.363 | -0.0649 | -0.699
2 | UGGGGCGCGAUCAAAACAACGUCGGCCCCA | 0.0437 | 0.157 | -0.439 | 0.2
3 | GUUGAUGAGCCUGAAGAACAUGUCCAAAUUCACACAAUCGACGGUUCAUCCGGAGUUGUUAAUCCAGUAAUGGAACCAAUUUAUGAUGAACCGACGACGAC | 0.862 | -0.311 | 0.77 | 0.104
4 | UAAAGUACUUAAUGAGAAGUGCUCUGCCUAUACAGUUGAACUCGGUACAGAAGUAAAUGAGUUCGCCUGUGUUGUGGCAGAUGCUGUCAUAAAAACUUUG [DMSMaPseq_invitro_SARS-CoV-2_Motif_52] | -0.501 | 0.122 | 0.722 | -0.419
5 | UGGGGAUCACAACUCA [IAV_invivo_PB1_2_Motif_11+IAV_invivo_PB1_2_Motif_11] | 0.158 | -0.0635 | -0.317 | 0.479
6 | GGAGAAAAUUCC [IAV_invivo_PA_3_Motif_17+IAV_invivo_PA_3_Motif_17] | -0.797 | -0.333 | -0.726 | -0.517
7 | CGCAGGGAAUGGAUAAUCUUGCCUGCG | -0.607 | -0.153 | -0.759 | -0.486
8 | CUAUCAGGCCGGUAG [DMSMaPseq_invitro_SARS-CoV-2_Motif_406] | -0.672 | -0.579 | -0.0779 | -0.61
9 | AGUUCAAGAAAUUCAACU | -0.478 | -0.224 | -0.672 | -0.166
10 | GGCUGGAUCGAGUGAGCAAGCAGCAGAGGCC [IAV_invivo_M1_M2_7_Motif_14+IAV_invivo_M1_M2_7_Motif_14] | 1.37 | 0.757 | 2.47 | 0.316
11 | CAGUUUGGUCCAACUUAUUUGGAUGGAGCUG | -1 | -0.514 | -0.976 | -0.686
12 | GCUUCCACAAGUGCUUUUGUGGAAACUGUGAAAGGUUUGGAUUAUAAAGCAUUCAAACAAAUUGUUGAAUCCUGUGGUAAUUUUAAAGUUACAAAAGGAAAAGC | -0.508 | -0.339 | -0.348 | -0.475
13 | UCUUGCCGAAUACCAUAAUGAAUCUGGCUUGA [SHAPE_invivo_SARS-CoV-2_Motif_27] | -0.631 | -0.354 | 0.0939 | -0.617
14 | AUGUACAUCUUCUUUGCAUCAUUUUAUUAUGUAUGGAAAAGUUAUGUGCAU | -1.36 | -0.603 | -1.44 | -1.16
15 | AACGGGGCGGGCCUUGGGCGGGGUAA [G4_2A2_VEGF-Pu22-mt] | 7.05 | 10.6 | 5.19 | 8.69
16 | GUUCAGAGUUUAUUCUAGUGCGAAUAAUUGCACUUUUGAAUAUGUCUCUCAGC | -0.295 | 0.063 | -0.426 | -0.177
17 | GUCUGGGAUCAACGAGUCAGCGGAC [IAV_invivo_PB1_2_Motif_28+IAV_invivo_PB1_2_Motif_28] | -0.256 | -0.51 | 0.401 | -0.28
18 | CUCUAUGACAAACUUGUUUCAAGCUUUUUGGAAAUGAAGAGUGAAAAGCAAGUUGAACAAAAGAUCGCUGAG | -0.314 | -0.291 | -0.00802 | -0.302
19 | GCAAACAUACAACGUGUUGU [SHAPE_invitro_SARS-CoV-2_Motif_281] | -0.622 | -0.176 | -0.671 | -0.398
20 | UGACAUGACUCUUGAGGAAAUGUCA [IAV_invivo_NS1_NEP_8_Motif_7+IAV_invivo_NS1_NEP_8_Motif_7] | -0.87 | -0.773 | -1.21 | -0.475
21 | GCGCUGCCAGAAACUGGCGGCGC [mismatch-UG] | 0.624 | -0.0108 | -0.856 | 0.983
22 | UCUUAAGAGAGGUGAUAAAAGUGUAUAUUACACUAGUAAUCCUACCACAUUCCACCUAGAUGGUGAAGUUAUCACCUUUGACAAUCUUAAGA | 0.528 | -0.0579 | -0.559 | 0.836
23 | GACAUCACUUUCUUAAAGAAAGAUGCUCCAUAUAUAGUGGGUGAUGUU [DMSMaPseq_invitro_SARS-CoV-2_Multi_15_ComplexLevel_1] | -0.173 | -0.0858 | -0.466 | -0.0756

Row | Sequence | pull-down binding Z-score [1] | pull-down binding Z-score [2] | pull-down binding Z-score [3] | pull-down binding Z-score [4]
24 | GGCGAUAGUUGUAAUAACUAUAUGCU | -1.31 | -0.564 | -0.976 | -1.04
25 | CUCCUUUGAUGGUUGCAUACAUGUUGGAG [IAV_invivo_PB2_1_Motif_8+IAV_invivo_PB2_1_Motif_8] | -0.689 | -0.208 | -0.427 | -0.359
26 | GAGGUGAUGCAGAUACUUACCUG [U1snRNP5ss-20] | 0.68 | 0.169 | 0.343 | 0.762
27 | GAUCUAAAACCAGUC [DMSMaPseq_invitro_SARS-CoV-2_Motif_121] | -0.0985 | 0.0363 | -0.546 | -0.0402
28 | ACCUUUAGUACCUUUCUGGAUAACAAUUGCUUAUAUCAUUUGUAUUUCCACAAAGCAUUUCUAUUGGU | 0.513 | -0.225 | -0.25 | 0.707
29 | UCCUAAAGAGGA | 0.703 | -0.431 | -0.731 | 1.2
30 | CGGGACCAACGAGGAAAUGUACUACUGUCUCCCG [IAV_invivo_PB2_1_Motif_23+IAV_invivo_PB2_1_Motif_23] | -0.196 | 0.118 | 0.354 | -0.431
31 | GGUUUUAUAGCUGGCUUGAUUGCCAUAGUAAUGGUGACAAUUAUGCUUUGCUGUAUGACC | -0.717 | -0.541 | -0.582 | -0.96
32 | GGGAUUAUCCU | -0.927 | -0.465 | -0.985 | -0.811
33 | UGAUAAAUUCA [SHAPE_invivo_SARS-CoV-2_Motif_325] | -0.712 | -0.375 | -1.19 | -0.376
34 | GAAUUUACACCUUUUGAUGUUGUUAGACAAUGCUCAGGUGUUACUUUC | 0.0292 | -0.394 | -0.632 | 0.167
35 | UGGGUUACAUCCUACACAGGCACCUACACACCUCAGUGUUGACACUAAAUUCAAAACUGAAGGUUUAUGUGUUGACAUACCUGGCAUACCUAAGGACAUGACCUA | -0.257 | -0.293 | 0.213 | -0.497
36 | GUUUACAACAGUAGAC | -0.136 | -0.155 | -1.28 | 0.0879
37 | GAUGGUCAAGUAGACUUAUUUAGAAAUGCCCGUAAUGGUGUUCUUAUUACAGAAGGUAGUGUUAAAGGUUUACAACCAUC | -0.421 | -0.245 | -0.181 | -0.346
38 | CACCAAGACUACUUACUGGUG [IAV_invivo_PB1_2_Motif_22+IAV_invivo_PB1_2_Motif_22] | -0.706 | -0.501 | -1.37 | -0.338
39 | UAAUUCUUGGCUUAUGUGGUUAAUAAUUA [DMSMaPseq_invitro_SARS-CoV-2_Motif_139] | -0.293 | -0.0756 | -0.709 | -0.0604
40 | CUUAGUUUUAAG [DMSMaPseq_invitro_SARS-CoV-2_Motif_263] | -1.02 | -0.268 | -1.26 | -0.781
41 | GCUAGUCUUAAUGGAGUCACAUUAAUUGGAGAAGC | 0.474 | 0.112 | 0.337 | 0.378
42 | GUGAAACAUUUGUCAC [SHAPE_invivo_SARS-CoV-2_Motif_46] | 0.532 | 0.013 | -0.394 | 0.818
43 | CAAUACAUAAGAAAGCUACAUGAUGAGUUAACAGGACACAUGUUAGACAUGUAUUCUGUUAUGCUUACUAAUGAUAACACUUCAAGGUAUUG | -0.411 | 0.625 | -0.157 | -0.424
44 | UGCCAUUUGUCAUGAUGGAAAAGCACACUUUCCUCGUGAAGGUGUCUUUGUUUCAAAUGGCA [SHAPE_invivo_SARS-CoV-2_Motif_465] | -0.0789 | -0.218 | -0.463 | -0.108
45 | GGAUGGUCUUCAAUCC [IAV_invivo_PB1_2_Motif_23+IAV_invivo_PB1_2_Motif_23] | -0.47 | -0.137 | -0.515 | -0.481
46 | GCUUCCACUGAGAAGU [DMSMaPseq_invitro_SARS-CoV-2_Motif_384] | -1.1 | -0.576 | -1.03 | -0.836

Row | Sequence | pull-down binding Z-score [1] | pull-down binding Z-score [2] | pull-down binding Z-score [3] | pull-down binding Z-score [4]
47 | GAUGAGUACGAACUUAUGUACUCAUU | -1.25 | -0.473 | -0.762 | -0.907
48 | UCUGCCUAUACAGUUGAACUCGGUACAGAAGUAAAUGAGUUCGCCUGUGUUGUGGCAGA [SHAPE_invivo_SARS-CoV-2_Motif_57] | -0.415 | -0.334 | 1.36 | -0.71
49 | GCGCUGCCAGAAACUGGCUGAGCGC [bulge-UG] | 0.392 | -0.0129 | -0.14 | 0.553
50 | GCUAGAAAAUCAGC [SHAPE_invivo_SARS-CoV-2_Motif_531] | -0.0963 | 0.246 | -0.164 | -0.186
51 | CUUUUAUGUCUAUGCUAAUGGAGGUAAAGG [SHAPE_invivo_SARS-CoV-2_Motif_154] | -0.68 | -0.487 | -0.771 | -0.524
52 | GGAAUAAGUACGAUACUUACCUG [U1snRNP5ss-5] | 0.464 | 0.089 | 1.56 | -0.215
53 | UACCAGACUAUAACACAUAUAAAAAUACGUGUGAUGGUA [DMSMaPseq_invitro_SARS-CoV-2_Motif_221] | -1.03 | -0.385 | -1.24 | -0.929
54 | AUUGGCGACCCUGCUCAAU [DMSMaPseq_invitro_SARS-CoV-2_Motif_311] | 0.0933 | -0.309 | -0.232 | 0.191
55 | ACAAUGGCAGACCUCGUCUAUGCUUUAAGGCAUUUUGAUGAAGGUAAUUGU | -0.93 | -0.242 | -1.12 | -0.812
56 | UAGUGUUACCACAGAAAUUCUACCAGUGUCUAUGACCAAGACAUCAGUAGAUUGUACAAUGUACAUUUGUGGUGAUUCAACUG [DMSMaPseq_invitro_SARS-CoV-2_Multi_72_ComplexLevel_1] | 0.228 | 0.267 | -0.417 | 0.214
57 | UGACCAGUCUUCUUACAUCGUUGAUAGUGUUACAGUGAAGAAUGGUUCCAUCCAUCUUUACUUUGAUAAAGCUGGUCA | -0.675 | -0.33 | -0.863 | -0.506
58 | UGGGUAGAAUUCGAUCUGUCUAUCCA | -0.686 | -0.21 | -0.327 | -0.51
59 | CCGAAAUUAUGUCUUUACUGGUUAUCGUGUAACUAAAAACAGUAAAGUACAAAUAGG | -0.399 | -0.0158 | -0.428 | -0.303
60 | GAGGCACUUAAAAUGACCAUGGCCUC [IAV_invivo_NS1_NEP_8_Motif_6+IAV_invivo_NS1_NEP_8_Motif_6] | 0.233 | 0.446 | -0.305 | 0.555
61 | CUUAUGUUGGUUGCCAUAACAAGUGUGCCUAUUGGGUUCCACGUGCUAGCGCUAACAUAGG | -1.11 | -0.751 | -0.75 | -1.06
62 | UCCAAGAACUUGGA | -1.35 | -0.88 | -1.73 | -0.941
63 | CAGUUUACUCACACCUUUUGCUCGUUGCUGCUG | -0.0216 | -0.285 | 0.0199 | -0.164
64 | CCAGUAUCUGAAUUACUUACACCACUGG [SHAPE_invivo_SARS-CoV-2_Motif_58] | 0.688 | 0.119 | -0.0924 | 0.91
65 | GUUUCGGAAGAGAC | -0.448 | -0.443 | -0.706 | -0.255
66 | UAAUAACGCUACUAAUGUUGUUAUUA | -1.02 | -0.411 | -1.73 | -0.595
67 | UAUUACAGAUCUUUACCAGGAGUUUUCUGUGGUG | -0.72 | -0.388 | -0.779 | -0.624
68 | GCUGUAGUGUUACUAAUCCUUAUGACAGC | -0.197 | -0.242 | -0.349 | -0.113
